Where “and” joins values, the source holds several entries; their conditions need not be identical. Identical values can stand only once.
Experiments:
[1] = target: β-Amyloid peptide Aβ-(1–40); test: filtration
[2] = target: β-Amyloid peptide Aβ-(1–40); test: continuous-wave EPR

“Spin-labeled Cys-(Aβ) (40 residue Aβ peptide variant containing an N-terminal cysteine, labeled with MTSL)” was tested. Which % of the slow component (larger aggregates) in the total spectrum, retentate [1] did it give?
Its % of the slow component (larger aggregates) in the total spectrum, retentate is 34%.

What about the % of the slow component (larger aggregates) in the total spectrum, 5–6 h [2] of the same substance?
Its % of the slow component (larger aggregates) in the total spectrum, 5–6 h is 34%.

What about the stoichiometry N [2] of the same substance?
Its stoichiometry N is 8 molecules and 15 molecules.

— paper PMC2779421
